Patent publication US20250205375A1, “HER3 RADIOIMMUNOTHERAPY FOR THE TREATMENT OF SOLID CANCERS” (ACTINIUM PHARMACEUTICALS, INC., priority 2023, published 2025)

Experiments:
PARP = conditions: cited from earlier work
[1] = test system: triple-negative breast cancers (TNBC); conditions: TNBC patients, cited from earlier work
[2] = test system: OVCAR5 cell line xenograft; assay: Human OVCAR5 cell line xenograft ovarian cancer mouse model, tumor growth; format: in vivo; conditions: 10 mg/kg on day 1
Procedure: (§1) FIG. 17A is a graph showing the effects on tumor growth in a human OVCAR5 cell line xenograft ovarian cancer mouse model for ^225Ac-labeled HER3 antibody, in a single dose of 0.2 μCi or 0.4 μCi, versus standard of care Bevacizumab (10 mg/kg), ^225Ac-labeled non-specific IgG control (0.4 μCi), and naked (cold) HER3 mAb control (10 μg). All agents/controls were dosed on day 1.
as §1, with “17B” for “17A”, “^177Lu-labeled” for “^225Ac-labeled”, “200” for “0.2”, “400” for “0.4”, “(400” for “(0.4”

total HER3 = target: T1, total HER3 (Homo sapiens, UniProt P21860); conditions: 40 mg/kg; cited from earlier work
T1 construct: host or cells: tumour biopsies of patients

HER3 = HER3 (Homo sapiens, UniProt P21860); conditions: cited from earlier work
HER3-expressing tumors = conditions: 0.1 mg/kg and 0.3 mg/kg; cited from earlier work
surface HER3 = target: T2, surface HER3 (Homo sapiens, UniProt P21860); conditions: across all dose levels tested (100-2000 mg); cited from earlier work
T2 construct: host or cells: tumour biopsies of patients

human recombinant HER3 = human recombinant HER3 (human, UniProt P21860 20-643); assay: ELISA, plate coated with human recombinant HER3, serial dilutions 0-100 µg/ml, anti-human IgG F(ab')2-HRP secondary
Procedure: A secondary antibody (Goat Anti-human IgG F (ab′) 20-HRP) was added and incubated for 30 min on ice followed by color development using […] for 10 min.

[3] = test system: ACHN human renal cancer cells xenograft; assay: ACHN human renal cell carcinoma xenograft in Balb/c nude mice, tumor growth; format: in vivo, mouse; conditions: 100 μg on day 1, intravenously
Procedure: In more detail, the experiment was performed as follows. Female Balb/c nude mice were subcutaneously injected with 5×10^6 ACHN human renal cancer cells (ATCC; CRL-1611). […] Drug treatments were administered orally for vehicle (PBS) and tivozanib or intravenously for unlabeled/unconjugated HER3 monoclonal antibody (HER3), HER3-ARC (Actinium-225 labeled HER3 antibody) and HER3-ADC (patritumab deruxtecan). Single agents or combinations were dosed as follows: vehicle (daily for 14 days), unlabeled/unconjugated HER3 antibody (100 μg on day 1), HER3-ADC (3 mg/kg on day 1 and 21), HER3-ARC (0.4 μCi on day 1 and 0.2 μCi on day 21), tivozanib (0.3 mg/kg daily for 14 days), tivozanib (0.3 mg/kg daily for 14 days) with HER3-ARC (0.4 μCi on day 16), and HER3-ARC (0.4 μCi on day 1) with tivozanib (0.3 mg/kg starting day 3, daily for 14 days). […] HER3-ARC was always administered in a total protein dose of 50 μg irrespective of the radiation dose. Tumor volumes were measured twice weekly by caliper and body weights were monitored. The mean tumor volume for each group was analyzed and graphed using GraphPad Prism software and statistical analysis is performed with Tukey's multiple comparisons test.

[4] = test system: DU145 human prostate cancer line; assay: Fluorescence flow cytometry cell binding assay, DU145
Text: (§2) FIG. 14 is a graph showing the fluorescence flow cytometry cell binding assay results for naked (unlabeled) and DOTA-conjugated (specifically, p-SCN-Bn-DOTA-conjugated) anti-HER3 antibodies AT02 and AV-203, versus nonstained control, secondary antibody (SA) only control, and non-specific IgG primary antibody control, for three human prostate cancer lines, DU145, 22RV1 and LnCAP.

[5] = test system: 22RV1 human prostate cancer line; assay: Fluorescence flow cytometry cell binding assay, 22RV1
Text: as §2

[6] = test system: LnCAP human prostate cancer line; assay: Fluorescence flow cytometry cell binding assay, LnCAP
Text: as §2

For NC(=O)c1cccc2cn(-c3ccc([C@@H]4CCCNC4)cc3)nc12 [niraparib], the IC50 values (PARP) is given as “nanomolar range”.

In the case of O=C(c1cc(Cc2n[nH]c(=O)c3ccccc23)ccc1F)N1CCN(C(=O)C2CC2)CC1 [olaparib], the disease stabilization rate ([1]; BRCA1/2-mutant vs non-mutant) is listed as “higher disease stabilization rate in BRCA1/2-mutant compared to non-mutant patients” and the sustained responses ([1]; either cohort) is listed as “no sustained responses”.

In the case of CNCc1ccc(-c2[nH]c3cc(F)cc4c3c2CCNC4=O)cc1 [rucaparib], the IC50 values (PARP) is listed as “nanomolar range”.

For Cn1ncnc1[C@H]1c2n[nH]c(=O)c3cc(F)cc(c23)N[C@@H]1c1ccc(F)cc1 [talazoparib], the IC50 values (PARP) is listed as “picomolar range”.

For C[C@]1(c2nc3c(C(N)=O)cccc3[nH]2)CCCN1 [veliparib], the IC50 values (PARP) is given as “nanomolar range”.

In the case of “Bevacizumab: standard of care agent; VEGF inhibitor [reference compound]”, the “antitumor efficacy (tumor growth)” value [2] is reported as “minimal effect”.

For “LJM716: HER3-targeting antibody from Novartis”, the “decrease in total HER3 levels, paired tumor biopsy samples” value (total HER3) is given as “three out of five”.

In the case of lumretuzumab: HER3 antibody from Roche, the “downregulation of HER3” value (HER3; 1-10 mg/kg) is given as “dose-dependent”, the HER3 target downregulation (HER3; lowest dose 0.3 mg/kg) is given as “did not result in HER3 target downregulation” and the “control of HER3-expressing tumors” value (HER3-expressing tumors) is given as “ineffective”. For the same molecule, the “downregulation of surface HER3 in serial tumor biopsies” value (surface HER3) was 92 % of patients.

B1: 225Ac-HER3-ARC (Actinium-225 labeled, p-SCN-Bn-DOTA-conjugated anti-HER3 IgG monoclonal antibody, heavy chain SEQ ID NO:77 and light chain SEQ ID NO:78) (antibody, V domains shown)
VH: QVQLVESGGGLVKPGGSLRLSCAASGFTFSDYAMSWIRQAPGKGLEWVSTISDGGTYTYYPDSVKGRFTISRDNAKNSLYLQMNSLRAEDTAVYYCAREWGDYDGFDYWGQGTLVTVSS
VL: DIQMTQSPSSLSASVGDRVTITCRASQEISGYLSWYQQKPGKAPKRLIYAASTLDSGVPSRFSGSGSGTEFTLTISSLQPEDFATYYCLQYDSYPYTFGQGTKLEIKR
modifications: conjugated to the chelator DOTA using p-SCN-Bn-DOTA and radiolabeled via chelation with Actinium-225; sites of conjugation not stated
notes: Antibody radioconjugate of m1; also called Ac225 labeled DOTA-conjugated anti-HER3 monoclonal antibody
B1 showed an EC50 (human recombinant HER3) of 1.7 ng/mL.

B2: AV-203: anti-HER3 monoclonal antibody from AVEO Oncology; heavy chain variable region SEQ ID NO:21, light chain variable region SEQ ID NO:22 (antibody, V domains shown)
VH: QVQLVESGGGLVKPGGSLRLSCAASGFTFSDYAMSWIRQAPGKGLEWVSTISDGGTYTYYPDSVKGRFTISRDNAKNSLYLQMNSLRAEDTAVYYCAREWGDYDGFDYWGQGTLVTVSS
VL: DIQMTQSPSSLSASVGDRVTITCRASQEISGYLSWYQQKPGKAPKRLIYAASTLDSGVPSRFSGSGSGTEFTLTISSLQPEDFATYYCLQYDSYPYTFGQGTKLEIK
With B2 the “tumor growth (mean tumor volume)” value [3] was “no effect on tumor growth”, the cell binding [4] was “specifically and comparably bound” and the cell binding [5] was “specifically and comparably bound”. For the same molecule, the cell binding [6] was “specifically and comparably bound”.

B3: anti-HER3 IgG monoclonal antibody consisting of heavy chain SEQ ID NO:77 and light chain SEQ ID NO:78 (unmodified) (antibody, V domains shown)
VH: QVQLVESGGGLVKPGGSLRLSCAASGFTFSDYAMSWIRQAPGKGLEWVSTISDGGTYTYYPDSVKGRFTISRDNAKNSLYLQMNSLRAEDTAVYYCAREWGDYDGFDYWGQGTLVTVSS
VL: DIQMTQSPSSLSASVGDRVTITCRASQEISGYLSWYQQKPGKAPKRLIYAASTLDSGVPSRFSGSGSGTEFTLTISSLQPEDFATYYCLQYDSYPYTFGQGTKLEIKR
notes: IgG; Detected with an anti-human IgG secondary antibody; also called unmodified anti-HER3 mAb; unmodified anti-HER3 antibody
Molecule B3 has an EC50 (human recombinant HER3) of 2.2 ng/mL.

B4: DOTA conjugated AV-203 (conjugate)
VH: QVQLVESGGGLVKPGGSLRLSCAASGFTFSDYAMSWIRQAPGKGLEWVSTISDGGTYTYYPDSVKGRFTISRDNAKNSLYLQMNSLRAEDTAVYYCAREWGDYDGFDYWGQGTLVTVSS
VL: DIQMTQSPSSLSASVGDRVTITCRASQEISGYLSWYQQKPGKAPKRLIYAASTLDSGVPSRFSGSGSGTEFTLTISSLQPEDFATYYCLQYDSYPYTFGQGTKLEIK
In the case of B4, the cell binding [4] is reported as “specifically and comparably bound”, the cell binding [5] is reported as “specifically and comparably bound” and the cell binding [6] is reported as “specifically and comparably bound”.
